# Laboratory results taken from IntAct's records for PubMed 20371544.
# B1: Muscle, skeletal receptor tyrosine-protein kinase (Mus musculus), Q61006 (parent)
# chain: MRELVNIPLLQMLTLVAFSGTEKLPKAPVITTPLETVDALVEEVATFMCAVESYPQPEISWTRNKILIKLFDTRYSIRENGQLLTILSVEDSDDGIYCCIANNGVGGAVESCGALQVKMKPKITRPPINVKIIEGLKAVLPCTTMGNPKPSVSWIKGDNALRENSRIAVLESGSLRIHNVQKEDAGQYRCVAKNSLGTAYSKLVKLEVEVFARILRAPESHNVTFGSFVTLRCTAIGIPVPTISWIENGNAVSSGSIQESVKDRVIDSRLQLFITKPGLYTCIATNKHGEKFSTAKAAATVSIAEWSKSQKDSQGYCAQYRGEVCDAVLAKDALVFFNTSYRDPEDAQELLIHTAWNELKAVSPLCRPAAEALLCNHLFQECSPGVVPTPMPICREYCLAVKELFCAKEWQAMEGKAHRGLYRSGMHLLPVPECSKLPSMHRDPTACTRLPYLDYKKENITTFPSITSSRPSADIPNLPASTSSFAVSPAYSMTVIISIVSSFALFALLTIATLYCCRRRKEWKNKKRESTAVTLTTLPSELLLDRLHPNPMYQRMPLLLNPKLLSLEYPRNNIEYVRDIGEGAFGRVFQARAPGLLPYEPFTMVAVKMLKEEASADMQADFQREAALMAEFDNPNIVKLLGVCAVGKPMCLLFEYMAYGDLNEFLRSMSPHTVCSLSHSDLSTRARVSSPGPPPLSCAEQLCIARQVAAGMAYLSERKFVHRDLATRNCLVGETMVVKIADFGLSRNIYSADYYKADGNDAIPIRWMPPESIFYNRYTTESDVWAYGVVLWEIFSYGLQPYYGMAHEEVIYYVRDGNILACPENCPLELYNLMRLCWSKLPADRPSFCSIHRILQRMCERAEGTVGV
# partner: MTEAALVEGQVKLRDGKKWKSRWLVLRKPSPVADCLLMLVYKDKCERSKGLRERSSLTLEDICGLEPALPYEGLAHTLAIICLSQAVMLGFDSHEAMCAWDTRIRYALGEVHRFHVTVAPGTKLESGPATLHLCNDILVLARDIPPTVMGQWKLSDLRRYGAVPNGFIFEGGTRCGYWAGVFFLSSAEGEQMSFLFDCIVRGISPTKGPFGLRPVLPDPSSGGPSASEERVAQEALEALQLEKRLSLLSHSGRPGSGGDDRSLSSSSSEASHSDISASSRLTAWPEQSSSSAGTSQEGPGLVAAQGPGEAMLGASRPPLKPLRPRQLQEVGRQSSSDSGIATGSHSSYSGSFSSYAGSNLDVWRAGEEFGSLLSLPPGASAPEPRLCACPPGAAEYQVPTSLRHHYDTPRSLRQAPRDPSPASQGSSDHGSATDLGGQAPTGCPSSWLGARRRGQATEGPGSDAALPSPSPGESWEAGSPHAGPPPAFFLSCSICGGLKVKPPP
# Variants of: B1
# Details: with dok7_mouse Dok7, Q18PE0
row,effect of a mutation on the interaction,Variant
1,disrupting interaction,A726V
2,decreasing interaction,M604I
